The values that follow come from the DeepSol protein solubility set.

A short description of this data set: soluble on expression in E. coli; label from the status in PepcDB or PDB records.
Take “MVQESTMICVDNSEYMRNGDFQPTRLQSQQDAVNLVTQCKLRANPENAVGILSMANSVQVLSSLSTEQGRLMMKNHSIEPFGKCNFIAGIKIAHLALKHRQNRNHKMRVVLFIGSPLEEIEMNELVKIAKKMKKEKVLCDVIMFGENESDGHEKFSTFVDTLNGKEGSGSSLIVVPQGSSLTDALLQSSVCKNEDGQAAFGGGGNGMDNAFGMDVENDPDLALALRVSMEEERARQAAAAAANGGAADSGADAEVAAAAAAVPLEEMDMGAMTEEQQLEWALRLSMQENAPAEQPQVQHEQMDVDGAPAVGGDNLDDLMNNPELLQQIVDDLPAANAEKDDDKEKK”: the “soluble on expression in E. coli” value is on record as “not soluble”. Under “MVRTINLYYNNRTVQAIVELKNKPARWHKAKKVQLTPGQTEVKIDLPLPIVASNLMIEFADFYENYQASTETLQCPRCSASVPANPGVCGNCGENVYQCHKCRSINYDEKDPFLCNACGFCKYARFDFMLYAKPCCAVDPIENEEDRKKAVSNINTLLDKADRVYHQLMGHRPQLENLLCKVNEAAPEKPQVVPRCKGHLDKGLGLDQKTAS” stands “not soluble”; under “MRTIPPDDVYISSTLPFEETTTEMMTTMETSTMTEKVCPEMPATTCMDLIKLGAKLELAEVDGCQVVQCTGGQIPRLITRNSVFSPKLYAGLSDATIVFPVPPTTLAGFGGKSFFDYYGLICDTFNGNFYWTMTKYPDGLIDLGGGQPILGSDGSYDGKQAPIEQVDCQEPK”, “not soluble”. Regarding “MLAKDSSLTRTGKGEIVDKDSSFTWYVGTIDEANAFIGLARVFSKDEKVRETLLEIQKMLFLVGAEPSLQKLSEKDLEWMLERVEEFERSVKKPHCFIILEKDESTAFLSVARAVVRRAERQAVRLYREGKARLLVVEWLNKLSYLLYLMILKEGGGDFEEI”, the “soluble on expression in E. coli” value was “not soluble”. Then “MAHHHHHHMTAYPFPIIDVSPLYQNTGAVMEVAKKIDEACRTWGFFYVVGHPIPRERFQELSRMARKFFSLPLEEKLQIDIKKSRHHRGYGEVNAEQLDPSAPNDHKETFDMGCHLPEDHPDVVAGKPLRGPNRHPTQLEGWRELMETHYREMQHFALVLLRALAVAIGIEEDFFVPRFVEPLSVFRMIHYPALPKTKEGRLVCGEHTDYGIITLLFQDTNGGLQVRDLSGEWIDAPPLEGSFVVNIGDMMNMWSNNRYRSTPHRVVNPGVDRISMPFFCEPNPNVVIKCLENCHSAENPAKYPPVKASDWLQKRFAQTYAYRKSML”, with “soluble”. Under “MNMLKKSLTALVLLGGLGAPVVAHATPAAAEAASEVQVAWVDGKVRISWTEAAGIPNTVSLELPGKPRKTLGTTTAAGDNQLVVEPSALEPTNDPASVAKIVVSDPSTAEARSAGFDRYVRGATPLAPVMTGTGVLNWQFPADTAVDSTPNDPLDVDAPVQFVPKLTLGVTPGTTDECKTVVLPATTAPYGSVPKQISPYALELLNVSEWGQSKLAGVRVRSSSTAFSTPASTGYGTRITMTGSILLQTLQNPAAGNCEDVTDTAALGGHELALQAREDGGAWYAVGVSKTDAQGKYQFVVSNPGARQYRAVLKTAAASGAAHYQSISAERSVRATPQVIDASFADDTITLGQQPNARVTVAPYGSHQVALQFKNASGQWQGLMYRTLSAGRAESGPFAFSRLGDTQFRWWVASSTSTTGLPVDAGYTYPFTLHVS” stands “not soluble”. For “MITLTKKQMEEMLAHARQALPNEACGLLGGRRDGDDRWVERVYPLNNLDQSPEHFSMDPREQLTAVKDMRKNGWVMLGNFHSHPATPARPSAEDKRLAFDPSLSYLIISLAEPQKPVCKSFLIKKDGVDEEEIILKEELEHHHHHH”, the “soluble on expression in E. coli” value was “soluble”. Under “MKITVFGATGNVGNRVITEALLRGHEITAVLRNNARANEFDSSVKVVIGHADNVDDVVKWSDGQDLIISATRPPQGLESQLVDTAKALLSGLAQTKVRLLLVGGAASLTVPNSNGMLVVDDTDLVPTAWRDIALACLAQHKLCQENESVDWSYISPPAVIVPGERTGIFRTGSDELLVDEQGQSTISLEDFAIALLDEAEVVKHKRKRFTVAYLEHHHHHH” stands “not soluble”; under “MSLFQITKVEARIANYSLHQDRVIITSLGIHDRSRYLIITLTDELENQGFGEAATVMIWSGEAAETGLWIVQNRITPLLTGSHYDHPSEILTILDRALQGNPFLKASIDIAAWDLWARRQEKPVSALIGDRKPVESVPTRFSIGAYSVEDTVRLAVESWEAGIRTLKIKTGVPGLDDVARLKAVRERLGKEPILTIDANGAYQTEDQAVAAIEELLPFNLALVEQPTPRDRIGMMARVKQRVDVPILADESIFTPGELAEALDCDAMDLLSLYPGKNGGFTNSLKMAQTAQNAGKYCVIGSNMETDLGQAAMVCLAASLTAFPVEEYASDLMTGMIYTASSTSPALELNNGRLLTPLGTGFGVEPLHDEGHHHHHH”, “soluble”. Under “MGSDKIHHHHHHYLFQTYGSNKGEIIECKNCYCFKDQWNNIKNNPSINKNAKVLSCWLYYDKASPKPALKIMLINKNKFHRFQYVDAICKNDEIVLEFNGTYKNLENEFSKGISTDEFMTSLDTVWKNAHNIFKTPSSKYSLFVTSKHSNSITKQSNAFYIGKNGALTKISEKDFPLNDVNYMNCSKLDEQDKSSENACIIFK” stands “not soluble”; under “MSLVEIVNRPYAKAFEAFATARPEVLCLSADLTSSCEVDGFRDRHPEQFLTLGMAEQNMLSFAGGLAMQGFRPFIHTFSVFLYRRPYDQLINSIAYSNRKVRLMGFLPGITTPGGITHQAIEDIAVLRAVPNMTILETGDATEVETVLEVADSIDGPVYVRILRGEVPRLFSTPFEFNKLRTLSEGDDILVVSSGVCTEEALRATGPLAARGVGIHHLHASTLKPFDKDGLLRAARGKKGIVTLENHTIIGGLGSLVSEILAEEGLGIRLKRLGLNDTFAHGASKPYLMKKYGLDAGALVSAIEELVGKNLAIGEEELVEVRLDHVHSAQKAEALEGHHHHHH”, “not soluble”; under “EHEKGQKLIKTMDQEIDEVAKIGKTIKKPKTVLFEVAALPDIYSFGNGTFLNEMIETIGAKNVLANEKGWLPVTEEAAIAAKPEVILTNVNYMKDPAKEILARKNWESVPAVQNKEVFEIDNMSSSLPNNHITKALKQMAKAVYPEEYKDLKDE”, “not soluble”.

Turning to “MESFELEDLTLWLIRDADEAEMWIDRWAVSYPVVQMSEASANGSTEAWQSALQTAFERIQGRHIAVVAHGAGAAAFLAWLYRADILTQKKLAGIILVSPRPDIFPDDAEHTFQRVRCPCRAALVVSEHGGVPHGWAQKQADLWNARLLVSPHSGSLNGMLGGWQWGMKLMQEMLLA”, the “soluble on expression in E. coli” value was “not soluble”. For “MAHHHHHHMEINISNITNSSNNKKERVNIHSHIKGLGVNTNIYLHENEISLSDEKYSMFFDNSCGLVGQFKAREASLFLVDLIKQKKLAGKCILLAGPSGSGKSALAIGISREINRKMPFVFLSGSEVYSNEIKKTEVILEAFRKSIHIKIKEEKLVYEGEVVDMVVEENECLYSLNKAKQINAIIITLKSVKGSKTLRLAPKIHEQIAREKIKIGDVIYIETNTGHVKRLGRCNDYAKEYDIEFDEYVSLPKGEVHKKKEVVQQISLHDIDLANANPTVGEDLASVLNSYLRPKKTEITEKLRVEINKTVNKFLESGLAEIIPGVLYIDEAHMLDIECFSYLNRAIESPLAPILIMATNRGICTVKGTDNIEPHGIPVDLLDRLIIIKTFPYTLKEIVQILALRAQTEKINITEEGMNYLAKIGIQSSLRFAMLLLEPSRILATLEGNTIIDIKHIEQADELFMDAKTSAHRVVDQSNKFVN”, the “soluble on expression in E. coli” value is reported as “not soluble”. Then “FPEKVKSLTLIDSFGFICAPEEQMTDQLRRGLLSRMKSANTTRSFTEETAVKARLHVSDLTVEHAKLIVKRSLIEIEPKSMDTVGVDSASILYRWRSDPRLRSVSPYRLSLKQGQQLFSDIKCPLQLIYGDKGMKMVVTGLKNFSSGVNSLQTTKLSGGHHVHMEKAEELLPILHHFFSEI”, with “not soluble”; and “MGSDKIHHHHHHMELDILDALGEGWTLTPAGGITGEAYIASTGQSKLFLKRNSSPFLAILSADGIVPKLLWTKRIYSGDVISAQQFIEGQELEPEMMERPEVARLLGKIHDSKELLFMLQQLDQRPIEPDELLRQCRLYFQPAELAQPELIEQAIDYLSERLPYVRTDEQVVCHSDLNHNNWLVGTDGHLYLNDWDDAIIADRAYDLGMMLYSYVDEECWPEWFAHYGHPLTKDLKQRMYWYVVAQAVLSIYWYEDTMHPDATESYLFLAQLLEMEQED”, with “not soluble”; and “MAHHHHHHSGMSGMRVYLGADHAGYELKQRIIEHLKQTGHEPIDCGALRYDADDDYPAFCIAAATRTVADPGSLGIVLGGSGNGEQIAANKVPGARCALAWSVQTAALAREHNNAQLIGIGGRMHTVAEALAIVDAFVTTPWSKAQRHQRRIDILAEYERTHEAPPVPGAPA”, with “soluble”. Then “MARDGAVYACQSCGAVQTKWSGQCSACQSWNTLVEEVSAKPPGALSATKATRVRGLQFTGLESETAPPPRILTGVDEFDRVCGGGVVPGSALLIGGDPGVGKSTLLLQVCASAAARGVSCAYISGEEAVEQIRGRADRMGLAKANVSLAAETALRDILDGLKRDNFDLVVIDSIQTMWSDAHEAGPGTVTQVRACATELVRLAKKKGVAILLVGHVTKDGQIAGPRVVEHLVDAVLSFEGERGYPFRILRGAKNRFGATDEIGVFEMGDVGLREVKNPSALFLNEGGERAAGAAVFAGIEGSRPVLVEFQALVAPSAYGTPRRAVVGWDSGRLAMVLAVLEARCGLGFGDKDVYLNVAGGLRITEPAADLAAAAALASSALDVALPQDCVVFGELSLSGEVRPVSRMETRLKEAAKLGFGRALGPLAGLPEGGGALPVAGVARLTDAVRRIGDEIWTSLT”, with “soluble”. Consider “MGSDKIHHHHHHMNREVFITCAVTGSGGSQDRSPHVPRSPKQIADSAIDAAKAGAAIVHCHVRDPETGKPRRDVHLYREVTERIRDANVDVVLNLTAGMGGDMVFGSPEAPLPLNEKGTDMGGATNRMEHVRQCLPEICTLDCGTMNFAEADYVMTNTPGMLRAMGGMMTALGVKPEIEAFDTGHLWFAKQLVEEKVLNPDALVQLCMGVPWGAPDDLNTFMAMVNNVPSTWNWSAFAIGRNQMAYAAAAVLAGGNVRVGLEDNLWLDKGVLATNAQLVERAASIVTNLGARILGPEEVRKKLNLTKRAPIAAAA”, for which the “soluble on expression in E. coli” value is reported as “not soluble”. “FPSKSKMFEALIERIEQTLTSYINASKRKENSTALAVKAILYTVIEFARKNPGVTRILTGHALMFENSELKLRVAKFFDGLELQFVNILQMRKLREGKAFQDERALAGYLVTFCEGQFLRLVRSNFSSNPHQHFEKQWSLIKPLFE”: the “soluble on expression in E. coli” value is “not soluble”. Then “MSEIKRLEINYKTDELFENFRAFGNKDLYMVNELNGQMIDASSDSPFYGIFVGDQLGARMALLKKGDVEEIYFPDFEDYILLWKLEVLPKYQNRGYASELIDFAKSFNMPIKAIGRNDSKDFFLHHGFTDVEAKNIEGHDVLLWKPIRLEHHHHHH”, with “not soluble”.
